Laboratory results taken from patent US20180185504A1 (Regeneron, published 2018).

T1: hPRLR.mFc (soluble dimeric human PRLR) (human)
T1 construct: dimeric PRLR construct
T1 chain: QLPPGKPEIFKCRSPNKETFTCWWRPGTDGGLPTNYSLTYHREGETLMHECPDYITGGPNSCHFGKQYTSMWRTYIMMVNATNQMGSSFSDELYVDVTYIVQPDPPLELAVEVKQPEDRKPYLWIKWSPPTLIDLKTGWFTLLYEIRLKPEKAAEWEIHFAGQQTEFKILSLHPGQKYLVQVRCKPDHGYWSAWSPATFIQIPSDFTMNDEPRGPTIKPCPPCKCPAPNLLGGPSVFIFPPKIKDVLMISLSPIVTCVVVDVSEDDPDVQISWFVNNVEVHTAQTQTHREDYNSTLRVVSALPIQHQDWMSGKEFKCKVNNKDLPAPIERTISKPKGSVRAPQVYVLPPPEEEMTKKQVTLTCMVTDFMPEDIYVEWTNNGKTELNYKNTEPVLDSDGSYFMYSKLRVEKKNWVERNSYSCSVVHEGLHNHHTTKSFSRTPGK

T2: hPRLR.mmh (soluble monomeric human PRLR) (human)
T2 construct: called soluble monomeric PRLR protein
T2 chain: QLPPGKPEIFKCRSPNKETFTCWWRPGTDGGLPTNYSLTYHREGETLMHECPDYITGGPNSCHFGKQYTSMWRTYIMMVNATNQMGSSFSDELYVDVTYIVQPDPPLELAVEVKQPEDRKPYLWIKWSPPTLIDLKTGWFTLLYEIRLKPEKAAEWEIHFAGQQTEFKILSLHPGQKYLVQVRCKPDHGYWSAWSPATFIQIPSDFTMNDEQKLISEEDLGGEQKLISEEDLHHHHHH

T3: macaca fascicularis (mf) PRLR.mmh (soluble monomeric monkey PRLR) (Macaca fascicularis)
T3 construct: called soluble monomeric PRLR protein
T3 chain: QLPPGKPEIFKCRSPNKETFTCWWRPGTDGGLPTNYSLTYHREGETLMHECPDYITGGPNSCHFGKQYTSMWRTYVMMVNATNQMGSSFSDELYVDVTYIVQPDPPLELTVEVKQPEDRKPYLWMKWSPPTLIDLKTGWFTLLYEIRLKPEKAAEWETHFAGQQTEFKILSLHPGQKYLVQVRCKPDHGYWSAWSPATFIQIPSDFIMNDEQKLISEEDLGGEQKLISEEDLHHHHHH


Key:
Assay in all cases: SPR Biacore, 25 C, mAb capture
[1] = biological target: T1, hPRLR.mFc (soluble dimeric human PRLR)
Protocol: (§1) Measurements were conducted on a T200 Biacore instrument. Kinetic association (kₐ) and dissociation (kd) rate constants were determined by processing and fitting the data to a 1:1 binding model using Scrubber 2.0 curve fitting software.

[2] = biological target: T2, hPRLR.mmh (soluble monomeric human PRLR)
Protocol: as §1

[3] = biological target: T3, macaca fascicularis (mf) PRLR.mmh …
Protocol: as §1

| Binder | Kd [1] [pM] | T½ [1] [min] | koff [1] [s⁻¹] | kon [1] [M⁻¹ s⁻¹] | Kd [2] [pM] | T½ [2] [min] | koff [2] [s⁻¹] | kon [2] [M⁻¹ s⁻¹] | Kd [3] [pM] | T½ [3] [min] | koff [3] [s⁻¹] | kon [3] [M⁻¹ s⁻¹] |
| --- | --- | --- | --- | --- | --- | --- | --- | --- | --- | --- | --- | --- |
| H1H6800P (antibody, human IgG1, V domains shown, Human IgG1 Fc (H1H)) VH: EVQLVESGGGLVQPGRSLRLSCAASGFTFDGYAMHWVRQGPGKGLEWVSGISWYSDTLGYADSVKGRFTISRDNAKNSLYLQMNSLRTEDTAFYYCAKISSSGWAFDYWGQGTLVTVSS VL: EIVLTQSPGTLSLSPGERATLSCRASHSVSSAYLAWYQQKPGQTPRLLIYGTSSRATGIPDRFSGSGSGTDFTLTISRLEPEDFAVYYCQQYGSSPLFTFGPGTKVDIK | 184 | 133 | 8.69e-05 | 473000 | 972 | 28 | 0.000409 | 421000 | 1250 | 30 | 0.00038 | 303000 |
| H1H6792P (antibody, human IgG1, V domains shown, Human IgG1 Fc (H1H)) VH: EVQLVESGGGLVQPGRSLRLSCAASGFTLDDHAVHWVRQAPGKGLEWVSGISWNSVYIDYADSVKGRFTIFRDNAKNSLYLQMNSLRAEDTAFYYCARDIEGARDYWGQGTLVTVSS VL: DIQMTQSPSSLSASVGDRVTITCRASQGIRNDLGWYQQKPGKAPKRLIYAASSLQSGVPSRFSGSGYGTEFTLTISSLQPEDFAPYYCLQHNSYPLTFGGGTKVEIK | 313 | 122 | 9.48e-05 | 303000 | 2450 | 15 | 0.000794 | 324000 | 4170 | 12 | 0.000983 | 236000 |
| H1H6797P (antibody, human IgG1, V domains shown, Human IgG1 Fc (H1H)) VH: EVQLVESGGGLVQPGGSLRLSCIVSGFTFSGSWMSWVRQLPGKGLEWVANIKEDGSDSYYVDSVEGRFTISRDNAKSSLYLQMNSLRVDDTAVYFCARARTVPLHYWGQGTLVTVSS VL: DIQMTQSPSTLSASVGDRVTITCRASQSINIWLAWYQQKPGKAPKLLIYRASYLESGVPSSFAGGGSGTEFTLTISSLQPDDFGTYYCQHYNSYPFTFGQGTKLEIK | 122 | 97 | 0.000119 | 982000 | 1730 | 6 | 0.00196 | 1.13e+06 | 3120 | 6 | 0.00209 | 670000 |
| H1H6793P (antibody, human IgG1, V domains shown, Human IgG1 Fc (H1H)) VH: EVQLVESGGGLVQPGGSLRLSCAASGFSFSIYAMSWFRQAPGKGLEWVSAINGRGDGTHYADSVKGRFTISRDNSKTTLYLQMSSLRAEDTAVYYCAKPVMSTNGFDIWGQGTMVTVSS VL: DIQMTQSPSTLSASVGDRVTITCRASQSISSWLAWYQLKPGKAPKLLIYKASNLESGVPSRFSGSGSGTEFTLTISSLQPDDFATYYCQQYNIYWTFGQGTKVEIK | 331 | 153 | 7.57e-05 | 229000 | 1410 | 35 | 0.000332 | 235000 | 2220 | 29 | 0.000393 | 177000 |
| H1H6795P (antibody, human IgG1, V domains shown, Human IgG1 Fc (H1H)) VH: QVQLVQSGAEVKKPGASVKVSCKASGYTFGTSGITWVRQAPGQGLEWMGWSSAYNGKTDYAQKFQDRVTMTTDTSTTTGYMEMRSLTSDDTAVYYCTTVVRRPFDFWGQGTLVTVSS VL: DIQMTQSPSSLSASVGDRVTITCRASQDINNFLAWFQQKPGKAPKSLIYAASSLQSGVPSKFSGGGSGTDFALTISSLQPEDFATYYCQQYSSYPITFGQGTRLEIK | 54.5 | 137 | 8.41e-05 | 1.54e+06 | 1520 | 7 | 0.00177 | 1.17e+06 | 2330 | 6 | 0.00197 | 844000 |

Next, values leading:

| Kd [1] [pM] | T½ [1] [min] | koff [1] [s⁻¹] | kon [1] [M⁻¹ s⁻¹] | Kd [2] [pM] | T½ [2] [min] | koff [2] [s⁻¹] | kon [2] [M⁻¹ s⁻¹] | Kd [3] [pM] | T½ [3] [min] | koff [3] [s⁻¹] | kon [3] [M⁻¹ s⁻¹] | Binder |
| --- | --- | --- | --- | --- | --- | --- | --- | --- | --- | --- | --- | --- |
| 67 | 242 | 4.77e-05 | 711000 | 268 | 54.5 | 0.000212 | 792000 | 438 | 36.3 | 0.000319 | 727000 | H1H6953N (antibody, human IgG1, V domains shown, Tested with human IgG1 Fc (H1H); also called H1M6953N) VH: EVQLLESGGGLVQPGGTLRLSCAASGFTFSAYAMSWVRQAPGKGLEWVSSINVRAGDTYYADSVKGRFTISRDNSKNTLFLLMNSLRAEDTAAYYCAKARYSSNWGFDFWGQGTLVTVSS VL: DIVMTQSPDSLTVSLGARTTINCQSSQTILHSSNNHNYLAWYQQKPGLPPKLLIYWSSTRESGVPDRFSGSGSGTDFTLTISSLQAEDVAIYYCQQYSNTPYTFGQGTKLEIN |
| 193 | 133 | 8.69e-05 | 451000 | 1400 | 18 | 0.000634 | 453000 | 1990 | 18 | 0.000657 | 331000 | H1H6804P (antibody, human IgG1, V domains shown, Human IgG1 Fc (H1H)) VH: QVTLKESGPVLVKPTQTLSLTCTVSGFSLSDAGMGVSWIRQPPGKALEWLAHIFSNDGKSYSTSLKSRLTISKDTSKRQVVLTMTNMDPVDTATYYCARIRTGTYSLYLDYWGQGTLVTVSS VL: DIQMTQSPSSLSASVGDRVTITCRASQSINSYLNWYQQKPGKAPKLLLYFASSLQSGVPSRFSGSGSGTDFTLTISSLQPEDFASYYCQESYSTPWTFGQGTKVEIK |
| 80.3 | 212 | 5.46e-05 | 680000 | 189 | 80 | 0.000144 | 761000 | 346 | 76 | 0.000151 | 437000 | H1H6807P (antibody, V domains shown, Human IgG1 Fc (H1H)) VH: QVQLVESGGGVVQPGRSLRLSCAASGFTFSDYNMHWVRQAPGKGLEWVAVIWYDGSNKHYADSVKGRFTISRDNSKNTLYLQMNSLRAEDTAVYYCARDGFTIFGMVLDYWGQGTLVTVSS VL: not shown |
| 607 | 184 | 6.29e-05 | 104000 | 1670 | 84 | 0.000137 | 82400 | 3370 | 55 | 0.000209 | 62100 | H1H6803P (antibody, human IgG1, V domains shown, Human IgG1 Fc (H1H)) VH: EVQLVESGGGVVRPGGSLRLSCAASGFKFDDYGMTWVRHVPGKGLEWVSGINWNGGRTGYTDSVKGRFTISRDNAKNSLYLQMNSLRAEDTALYHCAGARRDAFDIWGQGTMVTVSS VL: DIQMTQSPSSLSASIGDRVTITCRASQNIIKYLNWYQQNAGKAPKLLIYTASSLQSGVPSRFSGSGSGTDFTLTISSLQPEDFATYYCQQSSSSPYTFGQGTKLEIK |
| 161 | 106 | 0.000109 | 675000 | 894 | 15 | 0.000756 | 846000 | 1880 | 9 | 0.00123 | 657000 | H1H6801P (antibody, human IgG1, V domains shown, Human IgG1 Fc (H1H)) VH: QVQLQQSGPGLVKPSQTLSLTCVISGDSVSSNTAWNWVRQSPSRGLEWLGRTYYRSKWYNDYAVSVKSRITINPDTSKNQFSLLMNSVTPEDTAVYYCARVVRGLNYFDYWGQGTLVTVSS VL: DIVMTQSPDSLAVSLGERATINCKSSQSVLYNSNNKNYLAWYQQKPGQPPKLLIYWSSSRESGVPDRFSGSGSGTDFTLTISGLQAEDVAIYYCQQYSTIPYTFGQGTKLEIK |
